Columns and labels:
[1] = biological target: T cell receptor Vβ11 on murine tumor-draining lymph node T cells (mouse); test: cell-based or functional assay
[2] = biological target: T cell receptor Vβ12 on murine tumor-draining lymph node T cells (mouse); test: cell-based or functional assay
[3] = biological target: T cell receptor Vβ13 on murine tumor-draining lymph node T cells (mouse); test: cell-based or functional assay
[4] = biological target: T cell receptor Vβ14 on murine tumor-draining lymph node T cells (mouse); test: cell-based or functional assay
[5] = biological target: T cell receptor Vβ2 on murine tumor-draining lymph node T cells (mouse); test: cell-based or functional assay
[6] = biological target: T cell receptor Vβ3 on murine T cells (mouse); test: cell-based or functional assay
[7] = biological target: T cell receptor Vβ5.1, 5.2 on murine tumor-draining lymph node T cells (mouse); test: cell-based or functional assay
[8] = biological target: T cell receptor Vβ6 on murine tumor-draining lymph node T cells (mouse); test: cell-based or functional assay
[9] = biological target: T cell receptor Vβ7 on murine tumor-draining lymph node T cells (mouse); test: cell-based or functional assay
[10] = biological target: T cell receptor Vβ8.1 on murine T cells (mouse); test: cell-based or functional assay
[11] = biological target: T cell receptor Vβ8.2 on murine T cells (mouse); test: cell-based or functional assay
[12] = biological target: T cell receptor Vβ8.3 on murine T cells (mouse); test: cell-based or functional assay
[13] = biological target: T cell receptor Vβ9 on murine tumor-draining lymph node T cells (mouse); test: cell-based or functional assay
[14] = biological target: T cell receptor Vβ17 on murine tumor-draining lymph node T cells (mouse); test: cell-based or functional assay
[15] = design: species or system New Zealand white rabbits; conditions: rabbit, in vivo
[16] = design: species or system baboons; conditions: in vivo, sc

staphylococcal enterotoxin B (SEB) (from UniProt P01552 28-266)
% of Total T Cells (Vβ use of tumor-draining LN T cells stimulated with SEB) [1]: 2.9%
% of Total T Cells (Vβ use of tumor-draining LN T cells stimulated with SEB) [2]: 0%
% of Total T Cells (Vβ use of tumor-draining LN T cells stimulated with SEB) [3]: < 1%
% of Total T Cells (Vβ use of tumor-draining LN T cells stimulated with SEB) [4]: 0%
% of Total T Cells (Vβ use of tumor-draining LN T cells stimulated with SEB) [5]: 0%
% of Total T Cells (Vβ use of tumor-draining LN T cells stimulated with SEB) [6]: 32.5%
% of Total T Cells (Vβ use of tumor-draining LN T cells stimulated with SEB) [7]: 1.2%
% of Total T Cells (Vβ use of tumor-draining LN T cells stimulated with SEB) [8]: 0%
% of Total T Cells (Vβ use of tumor-draining LN T cells stimulated with SEB) [9]: < 1%
% of Total T Cells (Vβ use of tumor-draining LN T cells stimulated with SEB) [10]: 4.8%
% of Total T Cells (Vβ use of tumor-draining LN T cells stimulated with SEB) [11]: 15%
% of Total T Cells (Vβ use of tumor-draining LN T cells stimulated with SEB) [12]: 19.8%
% of Total T Cells (Vβ use of tumor-draining LN T cells stimulated with SEB) [13]: 0%

Staphylococcus aureus enterotoxin A (SEA) (from UniProt P0A0L2 25-257)
% of Total T Cells (Vβ use of tumor-draining LN T cells stimulated with SEA) [1]: 34.3%
% of Total T Cells (Vβ use of tumor-draining LN T cells stimulated with SEA) [2]: 7.4%
% of Total T Cells (Vβ use of tumor-draining LN T cells stimulated with SEA) [3]: 1.5%
% of Total T Cells (Vβ use of tumor-draining LN T cells stimulated with SEA) [4]: < 1%
% of Total T Cells (Vβ use of tumor-draining LN T cells stimulated with SEA) [14]: 0%
% of Total T Cells (Vβ use of tumor-draining LN T cells stimulated with SEA) [5]: < 1%
% of Total T Cells (Vβ use of tumor-draining LN T cells stimulated with SEA) [6]: 29.9%
% of Total T Cells (Vβ use of tumor-draining LN T cells stimulated with SEA) [7]: < 1%
% of Total T Cells (Vβ use of tumor-draining LN T cells stimulated with SEA) [8]: < 1%
% of Total T Cells (Vβ use of tumor-draining LN T cells stimulated with SEA) [9]: < 1%
% of Total T Cells (Vβ use of tumor-draining LN T cells stimulated with SEA) [11]: 1.5%
% of Total T Cells (Vβ use of tumor-draining LN T cells stimulated with SEA) [13]: 0%

CC(C)Cc1ccc(C(C)C(=O)O)cc1 (stereo not drawn) [Ibuprofen]
effect on SEB induced fever and anorexia [15]: reduced febrile responses exceeding 105° F. and shortened the period of anorexia and inanition
effect on SEB induced anorexia and malaise [16]: abrogate some of the anorexia and malaise
